From US20090286724A1, “AGGREGABLE GLP-1 ANALOGUE AND SUSTAINED-RELEASE PHARMACEUTICAL COMPOSITION” (CHUGAI SEIYAKU KABUSHIKI KAISHA, priority 2005, published 2009)
Ends that are not written are not given here.

How the values were obtained:
[1] = In vitro release test of GLP-1 from Zinc/GLP-1 complex; format: physicochemical; conditions: PBS pH 7.4, 37° C.
Procedure: The quantification of GLP-1 analogue was carried out using RP-HPLC.
400 μg of each of WT-GLP-1 and GLP-1 analogue (Peptide 1) was dissolved in a 1 mM HCl solution (200 μL, pH: 2.8) containing 2 mg/mL zinc chloride. 100 μL of each of the resulting solutions was added to E-tube and diluted with a 1 mM HCl solution, whereby a 1 mg/mL solution was prepared. Then, 20 μL of PB (pH: 8.9, 100 mM) was added thereto, whereby a complex of Zinc/GLP-1 was formed. After the resulting mixture was centrifuged at 15,000 rpm for 5 minutes, the supernatant was removed, whereby a Zinc/GLP-1 complex was obtained.
PBS (0.5 mL, pH: 7.4) was added to E-tube containing the Zinc/GLP-1 complex at 37° C. The E-tube was centrifuged at different time points, and the supernatant was sampled, and 0.5 mL of PBS was freshly added thereto. 20 μL of 0.2 M HCl was added to 200 μL of the sample, and quantification was carried out by RP-HPLC.

[2] = Precipitation of peptide as zinc salt, peptide in supernatant by RP-HPLC; format: physicochemical; conditions: Z/P=15, peptide 1 mg/mL, 100 mM HEPES pH 7.4, 25° C., 18 hours
Procedure: Further, zinc chloride was dissolved in Milli-Q water to give a final concentration of 1 mg/mL. 1 M HEPES buffer (pH 7.4) was separately prepared. To the aqueous solution of peptide, the HEPES buffer, Milli-Q water and the aqueous solution of zinc chloride were sequentially added, whereby a sample was prepared such that the final volume was 30 mL, the final concentration of peptide was 1 mg/mL, the final concentration of HEPES (pH 7.4) was 100 mM, and the ratio of zinc chloride to Peptide 1 became Z/P=1. The resulting solution was let stand at room temperature (25° C.) for 18 hours. […] The solution was subjected to a centrifugation procedure (10,000 g, 3 min) and decantation, whereby the white precipitate and supernatant were separated.
Further, zinc chloride was dissolved in Milli-Q water to give a final concentration of 1 mg/mL. 1 M HEPES buffer (pH 7.4) was separately prepared. […] The resulting solution was let stand at room temperature (25° C.) for 18 hours. […] The solution was subjected to a centrifugation procedure (10,000 g, 3 min) and decantation, whereby the white precipitate and supernatant were separated.

[3] = peptide 100 μg/mL, 100 mM HEPES pH 7.4, 25° C., 18 hours
Procedure: Further, zinc chloride was dissolved in Milli-Q water to give a final concentration of 0.1 mg/mL. 1 M HEPES (N-[2-hydroxyethyl]piperazine-N′-[2-ethanesulfonic acid]) buffer (pH 7.4) was separately prepared. To each of the aqueous solutions of peptide, the HEPES buffer, Milli-Q water and the aqueous solution of zinc chloride were sequentially added, whereby samples were prepared such that the final volume was 1 mL, the final concentration of peptide was 100 μg/mL, the final concentration of HEPES (pH 7.4) was 100 mM, and the ratio of zinc chloride to the mole number of peptide became various ratios (Z/P=0 to 30). These samples were let stand at room temperature (25° C.) for 18 hours. Each mixture was centrifuged (10,000 g, 3 min), and the concentration of peptide in the supernatant was determined by RP-HPLC.

[4] = Evaluation for aggregability by stirring in PBS (absorbance at 350 nm, monomer by RP-HPLC); format: physicochemical; conditions: 1 mg/mL in PBS
Procedure: Each of the GLP-1 analogue and WT-GLP-1 in Example 1 was dissolved in PBS at a concentration of 1 mg/mL, and the amount of monomer was determined by RP-HPLC. 450 μL of each of the same solutions was placed into a glass vial along with a stirring bar, and the solution was stirred with a stirrer at room temperature for 20 hours. After stirring, the absorbance of the solution at 350 nm was determined (DU640, manufactured by Beckman). As for the supernatant after centrifugation, the monomer quantification by RP-HPLC and CD measurement (J-725, manufactured by Jasco Co.) were carried out.
System: NanoSpace SI-2 (manufactured by Shiseido Co., Ltd.)
Column: Capcell PAK C18, 1 mm×75 mm (manufactured by Shiseido Co., Ltd.)
Eluent A: water/acetonitrile/TFA=949/50/1
Eluent B: water/acetonitrile/TFA=50/949/1
Elution method: Gradient from 80/20 to 20/80 (Eluent A/Eluent B)
The aggregability of Peptide 3 was evaluated in the same manner as the method shown in Example 2.

Human GLP-1 receptor = Human GLP-1 receptor (human, UniProt P43220); test: cell-based or functional assay

## CC[C@H](C)[C@H](NC(=O)[C@H](Cc1ccccc1)NC(=O)[C@H](CCC(=O)O)NC(=O)[C@H](CCCCN)NC(=O)[C@H](C)NC(=O)[C@H](C)NC(=O)[C@H](CCC(N)=O)NC(=O)CNC(=O)[C@H](CCC(=O)O)NC(=O)[C@H](CC(C)C)NC(=O)[C@H](Cc1ccc(O)cc1)NC(=O)[C@H](CO)NC(=O)[C@H](CO)NC(=O)[C@@H](NC(=O)[C@H](CC(=O)O)NC(=O)[C@H](CO)NC(=O)[C@@H](NC(=O)[C@H](Cc1ccccc1)NC(=O)[C@@H](NC(=O)CNC(=O)[C@H](CCC(=O)O)NC(=O)[C@H](C)NC(=O)[C@@H](N)Cc1c[nH]cn1)[C@@H](C)O)[C@@H](C)O)C(C)C)C(=O)N[C@@H](C)C(=O)N[C@@H](Cc1c[nH]c2ccccc12)C(=O)N[C@@H](CC(C)C)C(=O)N[C@H](C(=O)N[C@@H](CCCCN)C(=O)NCC(=O)N[C@@H](CCCNC(=N)N)C(=O)NCC(=O)O)C(C)C [WT, GLP-1(7-37)]
[1]
  release observed until day: 14 days
[2]
  peptide precipitated as a zinc salt: 95.7%

## HGEGTFTSDVSSYLEGQAAKEFIRWLVKGRG [Peptide 1, [Gly^8]-[Arg^30]-GLP-1(7-37)]
[3]
  ratio of added zinc to peptide (Z/P) when the solubility was the lowest: around 1

## Peptide 3: comparative GLP-1 analogue with an isoelectric point nearly equal to that of Peptide 1 (HGEGTFTSDVKSYLEGQAAKEFIAWLVKGRG)
[4]; stirred 20 hours
  aggregability compared with WT-GLP-1: an increase in the aggregability compared with that of WT-GLP-1 was not observed
[4]; stirred at room temperature for 20 hours
  UV 350 nm Absorbance: 0.06
[4]; stirred at room temperature for 20 hours, supernatant after centrifugation
  RP-HPLC Amount of residual monomer (%): 95%

B1: [Gly^8]-[Arg^30]-GLP-1(7-37) (peptide)
peptide: HGEGTFTSDVSSYLEGQAAKEFIRWLVKGRG
Human GLP-1 receptor
  EC50 value for cAMP production: 0.0902 nM
